According to publication PMC10973503:

Molecular target: α-synuclein (α-syn) 1-140 (UniProt P37840)
Test: WT-PFF-seeded ThT fibrillation kinetics, NS-TEM
Conditions: reference: unmodified WT monomer plus WT PFF; sites S87

binding against the reference: weaker
Substance: α-synuclein (α-syn) 1-140 (from UniProt P37840) pS87 monomer plus WT PFF
